In patent US9658208B2, “Methods and G proteins for screening and identifying ligands of G protein-coupled receptors” (Fred Hutchinson Cancer Research Center, priority 2011, dated 2017):

Target: T1, M2AchR (Rattus norvegicus, UniProt P10980)
T1 construct: expressed in transfected cells; host or cells: HEK-293 (chimera stably or transiently expressed; M2AchR transiently transfected)
T1 sequence (P10980 1-466): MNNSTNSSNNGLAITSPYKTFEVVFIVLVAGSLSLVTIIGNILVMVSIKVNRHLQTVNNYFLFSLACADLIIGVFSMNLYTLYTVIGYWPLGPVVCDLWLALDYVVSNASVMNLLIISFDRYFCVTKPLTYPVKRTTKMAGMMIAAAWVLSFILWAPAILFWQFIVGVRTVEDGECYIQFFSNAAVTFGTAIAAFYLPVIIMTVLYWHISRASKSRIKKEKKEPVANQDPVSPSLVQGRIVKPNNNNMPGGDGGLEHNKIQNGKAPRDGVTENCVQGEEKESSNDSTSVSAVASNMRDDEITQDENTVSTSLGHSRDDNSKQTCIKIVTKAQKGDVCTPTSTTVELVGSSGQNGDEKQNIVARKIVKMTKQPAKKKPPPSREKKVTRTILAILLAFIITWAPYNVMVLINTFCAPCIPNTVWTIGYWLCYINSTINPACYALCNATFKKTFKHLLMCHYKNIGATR
Experiment: CRE-SEAP reporter gene assay, stably versus transiently expressed chimeric G proteins
Type: cell-based
Details: cells transiently expressing the chimera construct, 10 uM acetylcholine
Procedure: The ligand-induced SEAP activity for cells stably transfected and expressing Gαs-based chimeric G proteins was compared with that of cells transiently expressing Gαs-based chimeric G proteins. Stable expression is achieved by integration of the construct of interest into the target cell's chromosome. Cell lines were prepared that stably expressed Gαs-Gαt-13, Gαs-Gαi-13, and Gαs-Gαo-13 G protein chimeras. […] Therefore, cell lines stably expressing the Gαs-based chimeric G proteins can provide enhanced sensitivity for the screening and identification of GPCR ligands.
Preparation of cells stably expressing G protein chimeras: HEK-293 cells were transfected with each of the G protein chimeras of interest. Following transfection, the cells were split and diluted in media containing 0.7 mg/ml neomycin (Gibco). Cells were grown until clones could be picked. At least 25 clones from each of the stables were picked, and tested for their suitability as sensor cell lines, by transfecting them with CRE-SEAP and cDNA encoding the M2AchR receptor. Those stables that elicited the maximal signal to noise following activation of the GPCRs were chosen and maintained. […]
Following transfection, the cells were maintained for 48 hours in 200 ul serum free media containing 10 uM acetylcholine (Sigma). […] Fluorescence was then measured using a CytoFluor 4000 multi well plate reader (Applied Biosystems).

B1: Gαs-Gαt-13: Gαs-based chimeric G protein, final 13 C-terminal amino acids substituted with those of Gαt (protein)
chain: MGCLGNSKTEDQRNEEKAQREANKKIEKQLQKDKQVYRATHRLLLLGAGESGKSTIVKQMRILHVNGFNGEGGEEDVPDYASNSDGEKATKVQDIKNNLKEAIETIVAAMSNLVPPVELANPENQFRVDYILSVMNVPNFDFPPEFYEHAKALWEDEGVRACYERSNEYQLIDCAQYFLDKIDVIKQADYVPSDQDLLRCRVLTSGIFETKFQVDKVNFHMFDVGGQRDERRKWIQCFNDVTAIIFVVASSSYNMVIREDNQTNRLQEALNLFKSIWNNRWLRTISVILFLNKQDLLAEKVLAGKSKIEDYFPEFARYTTPEDATPEPGEDPRVTRAKYFIRDEFLRISTASGDGRHYCYPHFTCAVDTENIRRVFNDCRDIIIKENLKDCGLF
modifications: Chimeric protein
notes: Gαs-based chimeric G protein, final 13 C-terminal amino acids substituted with those of Gαt
B1 was tested, and the “increase in SEAP activity” value was “approximately 10 fold”.
